Series [1] has as its target T1, GST HIF-1α 530-652, Q16665.
T1 chain: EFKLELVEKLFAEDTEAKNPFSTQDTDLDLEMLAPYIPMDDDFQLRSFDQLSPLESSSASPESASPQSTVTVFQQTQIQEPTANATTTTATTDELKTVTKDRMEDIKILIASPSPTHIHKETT

Series [2] addresses T2, His6-HIF-1α 530-698, Q16665.
T2 chain: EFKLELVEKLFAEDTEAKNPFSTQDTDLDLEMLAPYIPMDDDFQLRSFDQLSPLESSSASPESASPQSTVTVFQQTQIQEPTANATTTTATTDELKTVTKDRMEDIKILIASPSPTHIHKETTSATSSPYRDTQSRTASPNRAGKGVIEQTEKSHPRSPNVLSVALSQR

In another series the target is T3, GST HIF-1α 775-826 N803A.
T3 chain: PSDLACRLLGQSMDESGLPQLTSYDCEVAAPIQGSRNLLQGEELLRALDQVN

Series [3] addresses T4, His6-HIF-1α 344-503, Q16665.
T4 chain: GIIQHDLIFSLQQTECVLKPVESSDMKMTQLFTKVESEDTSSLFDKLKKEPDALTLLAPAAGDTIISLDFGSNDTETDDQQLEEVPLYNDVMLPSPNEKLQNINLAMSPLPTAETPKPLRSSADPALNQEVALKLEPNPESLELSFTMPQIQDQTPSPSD

The target in series [4] is GST HIF-1α 775-826 N803E, Q16665.
In the next series the target is T5, HIF-1α 775-826, Q16665.
T5 chain: T3 chain with A29N

The target of series [5] is GST HIF-1α 775-826 N803Q, Q16665.
In series [6] the target is GST HIF-1α 775-826 N803D, Q16665.
In series [7] the target is GST HIF-1α 775-826 [GST: P08515].
The target of series [8] is GST HIF-1α 577-826, Q16665.

From patent US20050244915 come the findings set out here.

Substitutions are numbered along the chain they refer to. Where only a bound is given, the exact number is not on record here.

B1: Factor Inhibiting HIF (FIH), recombinant (protein)
chain: MAATAAEAVASGSGEPREEAGALGPAWDESQLRSYSFPTRPIPRLSQSDPRAEELIENEEPVVLTDTNLVYPALKWDLEYLQENIGNGDFSVYSASTHKFLYYDEKKMANFQNFKPRSNREEMKFHEFVEKLQDIQQRGGEERLYLQQTLNDTVGRKIVMDFLGFNWNWINKQQGKRGWGQLTSNLLLIGMEGNVTPAHYDEQQNFFAQIKGYKRCILFPPDQFECLYPYPVHHPCDRQSQVDFDNPDYERFPNFQNVVGYETVVGPGDVLYIPMYWWHHIESLLNGGITITVNFWYKGAPTPKRIEYPLKAHQKVAIMRNIEKMLGEALGNPQEVGPLLNTMIKGRYN
With B1, the % activity relative to 775-826 peptide is 1.8% in series [1]; less than 0.01% in series [2]; less than 0.01% with GST HIF-1α 775-826 N803A; less than 0.01% in series [3]; less than 0.01% in series [4]; 100% in the series with HIF-1α 775-826, Q16665. Moreover, the % activity relative to 775-826 peptide in [5] was less than 0.01%; in [6], 7%; in series [7], 96%; in [8], 67%. Further, the CO2 released in series [1] is 0.05 nmol; in series [2] it was less than 0.001 nmol; with GST HIF-1α 775-826 N803A it was less than 0.001 nmol; in [3], less than 0.001 nmol; in [4], less than 0.001 nmol; in the series with HIF-1α 775-826, Q16665, 2.8 nmol. The CO2 released in [5] is less than 0.001 nmol; in series [6], 0.22 nmol; in series [7], 2.7 nmol; in series [8], 0.81 nmol. The “Km(peptide), 2-OG turnover assay” value in the series with HIF-1α 775-826, Q16665 is “Km(peptide)=10 µM”. In addition, in the series with HIF-1α 775-826, Q16665, the “Vmax, 2-OG turnover assay” value is on record as “Vmax=0.3 µmol/min/mg”. Also, in the series with HIF-1α 775-826, Q16665, the “mass increase of the substrate after reaction (mass spectrometry)” value was “an increase in mass of 16Da was observed after HPLC isolation of product”.
